Results published in US20230293638A1 (Eli Lilly, published 2023).
Changes are numbered by the printed parent chain. Numbered stars: 1 amine (or outer) side, 2 acyl side, 3 side chain; on linkers, the order of the positions; unused ones are H or OH. Square brackets hold non-standard residues; d marks the D form. Side chains are listed from the residue outwards. Ends that are not written are not given here. * marks the point of attachment. C20 diacid = O=C(O)CCCCCCCCCCCCCCCCCCC(=O)*; γGlu = O=C(O)[C@H](CCC(=O)[*:2])N[*:1]; AEEA = NCCOCCOCC(=O)O; Aib = CC(C)(N)C(=O)O

B1: Peptide 46 (peptide)
peptide: Y[Aib]EGTFTSDYSILLDKIAQ[Aib]AFIEYLIEGGPSSGAPK([AEEA-AEEA-γGlu-C20 diacid])PS-NH2
modifications: N-terminus assumed
SMILES: CC[C@H](C)[C@H](NC(=O)[C@H](CCCCN)NC(=O)[C@H](CC(=O)O)NC(=O)[C@H](CC(C)C)NC(=O)[C@H](CC(C)C)NC(=O)[C@@H](NC(=O)[C@H](CO)NC(=O)[C@H](Cc1ccc(O)cc1)NC(=O)[C@H](CC(=O)O)NC(=O)[C@H](CO)NC(=O)[C@@H](NC(=O)[C@H](Cc1ccccc1)NC(=O)[C@@H](NC(=O)CNC(=O)[C@H](CCC(=O)O)NC(=O)C(C)(C)NC(=O)[C@@H](N)Cc1ccc(O)cc1)[C@@H](C)O)[C@@H](C)O)[C@@H](C)CC)C(=O)N[C@@H](C)C(=O)N[C@@H](CCC(N)=O)C(=O)NC(C)(C)C(=O)N[C@@H](C)C(=O)N[C@@H](Cc1ccccc1)C(=O)N[C@H](C(=O)N[C@@H](CCC(=O)O)C(=O)N[C@@H](Cc1ccc(O)cc1)C(=O)N[C@@H](CC(C)C)C(=O)N[C@H](C(=O)N[C@@H](CCC(=O)O)C(=O)NCC(=O)NCC(=O)N1CCC[C@H]1C(=O)N[C@@H](CO)C(=O)N[C@@H](CO)C(=O)NCC(=O)N[C@@H](C)C(=O)N1CCC[C@H]1C(=O)N[C@@H](CCCCNC(=O)COCCOCCNC(=O)COCCOCCNC(=O)CC[C@H](NC(=O)CCCCCCCCCCCCCCCCCCC(=O)O)C(=O)O)C(=O)N1CCC[C@H]1C(=O)N[C@@H](CO)C(N)=O)[C@@H](C)CC)[C@@H](C)CC
B2: Peptide 47 (peptide)
peptide: Y[Aib]EGTFTSDYSILLDKIAQ[Aib]AFIEYLIEGGPSSGAPPK([AEEA-AEEA-γGlu-C20 diacid])S-NH2
modifications: N-terminus assumed
SMILES: CC[C@H](C)[C@H](NC(=O)[C@H](CCCCN)NC(=O)[C@H](CC(=O)O)NC(=O)[C@H](CC(C)C)NC(=O)[C@H](CC(C)C)NC(=O)[C@@H](NC(=O)[C@H](CO)NC(=O)[C@H](Cc1ccc(O)cc1)NC(=O)[C@H](CC(=O)O)NC(=O)[C@H](CO)NC(=O)[C@@H](NC(=O)[C@H](Cc1ccccc1)NC(=O)[C@@H](NC(=O)CNC(=O)[C@H](CCC(=O)O)NC(=O)C(C)(C)NC(=O)[C@@H](N)Cc1ccc(O)cc1)[C@@H](C)O)[C@@H](C)O)[C@@H](C)CC)C(=O)N[C@@H](C)C(=O)N[C@@H](CCC(N)=O)C(=O)NC(C)(C)C(=O)N[C@@H](C)C(=O)N[C@@H](Cc1ccccc1)C(=O)N[C@H](C(=O)N[C@@H](CCC(=O)O)C(=O)N[C@@H](Cc1ccc(O)cc1)C(=O)N[C@@H](CC(C)C)C(=O)N[C@H](C(=O)N[C@@H](CCC(=O)O)C(=O)NCC(=O)NCC(=O)N1CCC[C@H]1C(=O)N[C@@H](CO)C(=O)N[C@@H](CO)C(=O)NCC(=O)N[C@@H](C)C(=O)N1CCC[C@H]1C(=O)N1CCC[C@H]1C(=O)N[C@@H](CCCCNC(=O)COCCOCCNC(=O)COCCOCCNC(=O)CC[C@H](NC(=O)CCCCCCCCCCCCCCCCCCC(=O)O)C(=O)O)C(=O)N[C@@H](CO)C(N)=O)[C@@H](C)CC)[C@@H](C)CC
B3: Peptide 48 (peptide)
peptide: Y[Aib]EGTFTSDYSILLDKIAQ[Aib]AFIEYLIEGGPSSGAPPPK([AEEA-AEEA-γGlu-C20 diacid])-NH2
modifications: N-terminus assumed
SMILES: CC[C@H](C)[C@H](NC(=O)[C@H](CCCCN)NC(=O)[C@H](CC(=O)O)NC(=O)[C@H](CC(C)C)NC(=O)[C@H](CC(C)C)NC(=O)[C@@H](NC(=O)[C@H](CO)NC(=O)[C@H](Cc1ccc(O)cc1)NC(=O)[C@H](CC(=O)O)NC(=O)[C@H](CO)NC(=O)[C@@H](NC(=O)[C@H](Cc1ccccc1)NC(=O)[C@@H](NC(=O)CNC(=O)[C@H](CCC(=O)O)NC(=O)C(C)(C)NC(=O)[C@@H](N)Cc1ccc(O)cc1)[C@@H](C)O)[C@@H](C)O)[C@@H](C)CC)C(=O)N[C@@H](C)C(=O)N[C@@H](CCC(N)=O)C(=O)NC(C)(C)C(=O)N[C@@H](C)C(=O)N[C@@H](Cc1ccccc1)C(=O)N[C@H](C(=O)N[C@@H](CCC(=O)O)C(=O)N[C@@H](Cc1ccc(O)cc1)C(=O)N[C@@H](CC(C)C)C(=O)N[C@H](C(=O)N[C@@H](CCC(=O)O)C(=O)NCC(=O)NCC(=O)N1CCC[C@H]1C(=O)N[C@@H](CO)C(=O)N[C@@H](CO)C(=O)NCC(=O)N[C@@H](C)C(=O)N1CCC[C@H]1C(=O)N1CCC[C@H]1C(=O)N1CCC[C@H]1C(=O)N[C@@H](CCCCNC(=O)COCCOCCNC(=O)COCCOCCNC(=O)CC[C@H](NC(=O)CCCCCCCCCCCCCCCCCCC(=O)O)C(=O)O)C(N)=O)[C@@H](C)CC)[C@@H](C)CC
B4: Peptide 50 (peptide)
peptide: Y[Aib]EGTFTSDYSILLDKK([AEEA-AEEA-γGlu-C20 diacid])AQ[Aib]AFIEYLIEGGPSSG-NH2
modifications: N-terminus assumed
SMILES: CC[C@H](C)[C@H](NC(=O)[C@H](CC(C)C)NC(=O)[C@H](Cc1ccc(O)cc1)NC(=O)[C@H](CCC(=O)O)NC(=O)[C@@H](NC(=O)[C@H](Cc1ccccc1)NC(=O)[C@H](C)NC(=O)C(C)(C)NC(=O)[C@H](CCC(N)=O)NC(=O)[C@H](C)NC(=O)[C@H](CCCCNC(=O)COCCOCCNC(=O)COCCOCCNC(=O)CC[C@H](NC(=O)CCCCCCCCCCCCCCCCCCC(=O)O)C(=O)O)NC(=O)[C@H](CCCCN)NC(=O)[C@H](CC(=O)O)NC(=O)[C@H](CC(C)C)NC(=O)[C@H](CC(C)C)NC(=O)[C@@H](NC(=O)[C@H](CO)NC(=O)[C@H](Cc1ccc(O)cc1)NC(=O)[C@H](CC(=O)O)NC(=O)[C@H](CO)NC(=O)[C@@H](NC(=O)[C@H](Cc1ccccc1)NC(=O)[C@@H](NC(=O)CNC(=O)[C@H](CCC(=O)O)NC(=O)C(C)(C)NC(=O)[C@@H](N)Cc1ccc(O)cc1)[C@@H](C)O)[C@@H](C)O)[C@@H](C)CC)[C@@H](C)CC)C(=O)N[C@@H](CCC(=O)O)C(=O)NCC(=O)NCC(=O)N1CCC[C@H]1C(=O)N[C@@H](CO)C(=O)N[C@@H](CO)C(=O)NCC(N)=O
B5: Peptide 51 (peptide)
peptide: Y[Aib]EGTFTSDYSILLDKK([AEEA-AEEA-γGlu-C20 diacid])AQ[Aib]AFIEYLIEGG-NH2
modifications: N-terminus assumed
SMILES: CC[C@H](C)[C@H](NC(=O)[C@H](CC(C)C)NC(=O)[C@H](Cc1ccc(O)cc1)NC(=O)[C@H](CCC(=O)O)NC(=O)[C@@H](NC(=O)[C@H](Cc1ccccc1)NC(=O)[C@H](C)NC(=O)C(C)(C)NC(=O)[C@H](CCC(N)=O)NC(=O)[C@H](C)NC(=O)[C@H](CCCCNC(=O)COCCOCCNC(=O)COCCOCCNC(=O)CC[C@H](NC(=O)CCCCCCCCCCCCCCCCCCC(=O)O)C(=O)O)NC(=O)[C@H](CCCCN)NC(=O)[C@H](CC(=O)O)NC(=O)[C@H](CC(C)C)NC(=O)[C@H](CC(C)C)NC(=O)[C@@H](NC(=O)[C@H](CO)NC(=O)[C@H](Cc1ccc(O)cc1)NC(=O)[C@H](CC(=O)O)NC(=O)[C@H](CO)NC(=O)[C@@H](NC(=O)[C@H](Cc1ccccc1)NC(=O)[C@@H](NC(=O)CNC(=O)[C@H](CCC(=O)O)NC(=O)C(C)(C)NC(=O)[C@@H](N)Cc1ccc(O)cc1)[C@@H](C)O)[C@@H](C)O)[C@@H](C)CC)[C@@H](C)CC)C(=O)N[C@@H](CCC(=O)O)C(=O)NCC(=O)NCC(N)=O
B6: Peptide 52 (peptide)
peptide: YXEGTFTSDYSIXLDSKAQXAFIEYLIEGGPSSGAPPPS
modifications: Aib2; αMeL13; K17((2-[2-(2-Amino-ethoxy)-ethoxy]-acetyl)2-(γGlu)-CO-(CH2)18-CO2H); Aib20; C-terminal NH2
B7: Peptide 60 (peptide)
peptide: B6 peptide with S16X
modifications: Aib2; αMeL13; Aib16; K17((2-[2-(2-Amino-ethoxy)-ethoxy]-acetyl)2-(γGlu)-CO-(CH2)18-CO2H); Aib20; C-terminal NH2
B8: Peptide 62 (peptide)
peptide: YXEGTFTSDYSIXLDKKAQXAFIEYLIEGG
modifications: Aib2; αMeL13; K17((2-[2-(2-Amino-ethoxy)-ethoxy]-acetyl)2-(γGlu)-CO-(CH2)18-CO2H); Aib20; C-terminal NH2
B9: Peptide 63 (peptide)
peptide: B8 peptide with K16E
modifications: Aib2; αMeL13; K17((2-[2-(2-Amino-ethoxy)-ethoxy]-acetyl)2-(γGlu)-CO-(CH2)18-CO2H); Aib20; C-terminal NH2
B10: Peptide 64 (peptide)
peptide: B8 peptide with K16S
modifications: Aib2; αMeL13; K17((2-[2-(2-Amino-ethoxy)-ethoxy]-acetyl)2-(γGlu)-CO-(CH2)18-CO2H); Aib20; C-terminal NH2
B11: Peptide 65 (peptide)
peptide: B8 peptide with K16T
modifications: Aib2; αMeL13; K17((2-[2-(2-Amino-ethoxy)-ethoxy]-acetyl)2-(γGlu)-CO-(CH2)18-CO2H); Aib20; C-terminal NH2
B12: Peptide 3 (peptide)
peptide: B6 peptide with F6X, S16X, A21E, E24X
modifications: Aib2; αMeF(2F)6; αMeL13; Orn16; K17((2-[2-(2-Amino-ethoxy)-ethoxy]-acetyl)2-(γGlu)-CO-(CH2)18-CO2H); Aib20; D-Glu24; C-terminal NH2
B13: Peptide 66 (peptide)
peptide: B6 peptide with S16E, I27L
modifications: Aib2; αMeL13; K17((2-[2-(2-Amino-ethoxy)-ethoxy]-acetyl)2-(γGlu)-CO-(CH2)18-CO2H); Aib20; C-terminal NH2
B14: Peptide 68 (peptide)
peptide: B6 peptide with S11X, X13L, S16K
modifications: Aib2; αMeS11; K17((2-[2-(2-Amino-ethoxy)-ethoxy]-acetyl)2-(γGlu)-CO-(CH2)18-CO2H); Aib20; C-terminal NH2
B15: Peptide 69 (peptide)
peptide: B6 peptide with F6X, S16K
modifications: Aib2; αMeF6; αMeL13; K17((2-[2-(2-Amino-ethoxy)-ethoxy]-acetyl)2-(γGlu)-CO-(CH2)18-CO2H); Aib20; C-terminal NH2
B16: Peptide 73 (peptide)
peptide: Y[Aib]EGTFTSDYSILLDKIAQ[Aib]AFIEYLIK([AEEA-AEEA-γGlu-C20 diacid])GG-NH2
modifications: N-terminus assumed
SMILES: CC[C@H](C)[C@H](NC(=O)[C@H](CCCCN)NC(=O)[C@H](CC(=O)O)NC(=O)[C@H](CC(C)C)NC(=O)[C@H](CC(C)C)NC(=O)[C@@H](NC(=O)[C@H](CO)NC(=O)[C@H](Cc1ccc(O)cc1)NC(=O)[C@H](CC(=O)O)NC(=O)[C@H](CO)NC(=O)[C@@H](NC(=O)[C@H](Cc1ccccc1)NC(=O)[C@@H](NC(=O)CNC(=O)[C@H](CCC(=O)O)NC(=O)C(C)(C)NC(=O)[C@@H](N)Cc1ccc(O)cc1)[C@@H](C)O)[C@@H](C)O)[C@@H](C)CC)C(=O)N[C@@H](C)C(=O)N[C@@H](CCC(N)=O)C(=O)NC(C)(C)C(=O)N[C@@H](C)C(=O)N[C@@H](Cc1ccccc1)C(=O)N[C@H](C(=O)N[C@@H](CCC(=O)O)C(=O)N[C@@H](Cc1ccc(O)cc1)C(=O)N[C@@H](CC(C)C)C(=O)N[C@H](C(=O)N[C@@H](CCCCNC(=O)COCCOCCNC(=O)COCCOCCNC(=O)CC[C@H](NC(=O)CCCCCCCCCCCCCCCCCCC(=O)O)C(=O)O)C(=O)NCC(=O)NCC(N)=O)[C@@H](C)CC)[C@@H](C)CC
B17: Peptide 81 (peptide)
peptide: B6 peptide with S11X, X13L, S16K
modifications: Aib2; D-Ser11; K17((2-[2-(2-Amino-ethoxy)-ethoxy]-acetyl)2-(γGlu)-CO-(CH2)18-CO2H); Aib20; C-terminal NH2
B18: Peptide 83 (peptide)
peptide: B6 peptide with X13L, S16K, E28X
modifications: Aib2; K17((2-[2-(2-Amino-ethoxy)-ethoxy]-acetyl)2-(γGlu)-CO-(CH2)18-CO2H); Aib20; D-Glu28; C-terminal NH2

Target: human GLP-1 receptor (human, UniProt P43220 24-463)
Assay: cell-based or functional assay

In order of falling “hGLPIR cAMP EC50 ratio” value:
1. B12  1.25
2. B15  0.85
3. B4  0.675
4. B6  0.514
5. B8  0.463
6. B10  0.429
7. B5  0.426
8. B9  0.386
9. B14  0.354
10. B13  0.255
11. B7  0.237
12. B11  0.233
13. B18  0.166
14. B1  0.0969
15. B3  0.0966
16. B2  0.089
17. B17  0.063
18. B16  0.0225
